Measured values as given in publication PMC5823459.

Experiments:
[1] = target: mouse-human chimeric mAb 101F; test: ELISA
D25 [2] = details: cells fixed with 4% (vol/vol) paraformaldehyde 16 h after transfection; read off a plot
palivizumab = details: cells fixed with 4% (vol/vol) paraformaldehyde 16 h after transfection; read off a plot
D25 [3] = test: ELISA

Substance	EC50 [1] [µg/mL]	percent of parent (D25 [2]) [% WT]	percent of parent (palivizumab) [% WT]	also measured
post-fusion RSV A2 F protein I432A	0.066			
wild-type RSV F (RSV-A2) expressed on HEK-293T cells G430A		310	400	
post-fusion RSV A2 F protein R429A	0.026			
post-fusion RSV A2 F protein G430A	0.035			
wild-type RSV F (RSV-A2) expressed on HEK-293T cells I432A		240	260	
pre-fusion RSV A2 F SC-TM protein G430A	0.97			
pre-fusion RSV A2 F SC-TM protein R429A				EC50 (D25 [3]): 0.023 µg/mL
wild-type RSV F (RSV-A2) expressed on HEK-293T cells R429A		390	310	
